# In the DeepSol protein solubility set:
# Assay: soluble on expression in E. coli; label from the status in PepcDB or PDB records
row,Sequence,soluble on expression in E. coli
1,AHHHHHHGSIDLILLAGKLKRIPRMGWLIKGVPNPESVADHSYRVAFITLLLAEELKKKGVEIDVEKALKIAIIHDLGEAIITDLPLSAQKYLNKEEAEAKALKDVLPEYTELFEEYSKALTLEGQLVKIADKLDMIIQAYEYELSGAKNLSEFWNALEDLEKLEISRYLREIIEEVRRLKDDH,soluble
2,AHHHHHHGSILEKAREILEEHQLCNHCLGRLFGKLGKGTNEERGRAIRLLLSMETGKEYKEPEKCELCGGVFNNLDKFAELCIKAAEGIEFETFWVGSRFPEEIEKKEEEIWRKFRVVSGEKITKEFNRELGKVIAVRYGKTPVKERPDVVFIVEPFSEKVELQVNPIYVAGRYRKLIRGIPQTPAPGFKESIATIICRAFKKHFHGKCIFKGAGREDVDVRMLGNGRPFVVEIKRPRKRKVNLKDIEEEINQSGKVEVLNLRFITPEEAERILTTRHRKVYEAIVYVKDGITKEEVEKVVKSLKNAEIKQRTPRRVLNSRADLVRVRKVYDVKGELIDDKHFKLRLVTDGGLYIKELISGDRGRTTPSVSEILGKEAWCEILDVLEVLDDVEGDN,soluble
3,AHHHHHHGSIWEEILNFEPYRAVEGNYRIWLDKNESPYDLPPQLKEEILEELKRIEFNRYPHITSDPLREALAEFYGLKKENIAVGNGSDELINYLVKMFKGKYIVVTSPTFGMYSFFAKLHGIPVKDIPLKEDFTIDGERIAEEGKAASAIFIASPNNPTGNSQPENEVLKVLDSGRVVILDEAYSEFSGKSFIPKISEYENLVILRTFSKAFGLAGIRCGYMIANEKIIDALYRILPPYNLNSLTMTVAIKMLEHYDIVKRRIKLIVKERERIRREFIEYSYPSEANFLLMKLDAYDYLLKKGIVVRKLSGRLEGHIRVTIGKKWENDELIKALKEFLEECRCG,soluble
4,AHHHHHHGSKIATIVGARPQFIKMAPVSRELRKYFEEVVIHTGQHYDYEMDRIFFEQLNIPEPDYNLGVGSGSHGYQIGEMLKKIEEVLIKEKPDLVMVFGDTNSTLAGALAAAKLKIKVAHVEAGLRSFDKSMPEEINRILTDHVSDYLFAPTETAVKNLYNEGIRNGVYLTGDVMLDALLYNVKIAERCSEILNKLGLKPKEFCLATVHRAENTDNLERLKNIIDAFVECKETIVFPVHPRTEKVLKAYGLYDSLKKAENVILIKPVGYLDMLMLEKNAKKILTDSGGVQKEAYFLKVPCITLRERTEWVETVEDGWNVLVGADKEKILRAVREFEPSGETYTYKFGDGRASEKIAEVIKNVDR,not soluble
5,AHHHHHHGSKKRLPASRVYIKDILEGYFVKSEGDFEPNYLITKDARKIYRAKIVGTVIREPLIAEDETYGKFQIDDGTGVIWVLGFRDDTKFAKLVKKGDLVQVIGKIAEWRDDKQILVEGVAKVHPNMWILHRYETLKEKIEHARKAKIAFEIYNTYGITAKSKVIAKNKGVPEELLETIDELYGIIMEEKAMEEPVEELIEEEITEEGKEENEILEKVKQEILEILRSKKIAVSRKYILKKLGEKYDEETIEDAIAELLADGEIYEPETGYYKLL,not soluble
6,AHHHHHHGSKLDDSFLTLFPEEDKVYEVLLSTKSNFTPIGVRRQGRVLKFRIFEGRSFRDLEECNYAIIQVVDDTELLAGLAYNLDVKFDVTQGIKVPIRRIEGYPWVEGEVKCRIVKVKDSIGESIAKDCTLTPIYIGIEKRVPRPISRADNVLLELAVLGTRLIVKKKRGLQIKDVAQKIEELYELYRKLGGKSEIAGKIMDILRKHYL,soluble
7,AHHHHHHGSKLMEVSPLFPCIFLRRVNRFVGLVRIKERIERALITNTGRLNEFMIPGRIGYCTPKAGGKTRYILLGFEDHGKIAIIDTRLQGKAFEKIIEKELLPELEGCRIIKREPRVGESRLDYLLECSKGEIFVETKSAVLREGEYAMYPDCPSVRGQRHIKELIKLARDGKRAMIVFIGALPNVSKFKPYKKGDPKIAELLKEALEAGVEIRALGLHMELSGEIIYRGELGVEI,soluble
8,AHHHHHHGSRGILDDIDKKIIEILQKDGKVPLREISKITGLAESTIHERIKRLRESGVIKKFTAVVNPEALGYNILAFILIKVKAGKYSEVASKLVKYPEIVEVYETTGDYDMVVKIRTKNSEELNNFLDMVGSIEGVEGTHTMIVLKVHKETTELPVK,soluble
9,AHHHHHHGSRIVLAYSGGLDTSVILKLMQEKLGAEVITVTVDVGQKDDFEKIEEKAYKFGAVKHYYIDAKEEFAENYVCKAIKANALYENAYPLSTALARPLIVEKLVEVAKKEGAGIIAHGCTGKGNDQVRFNLGIKALMPEAEILQPVAEWNLTRDWEMEYAKKHGIPVSDKIYSIDENIWGRSIEGGVLEDPSIEPPEEVFEWTVSIEKAPDKPEYVTIGFENGVPVSLNGEKMKLLELILKLNEIAGKHGVGRIDHIEDRSVGIKSREVYEAPAAVTLIKAHQDLEKLTLTKWVIEFKSIVDSKWSWLVYNGLWYEPLRLALEGFIDEAEKAVNGEVTVKLWKGNAIVVGRKSDNALYDVKMATYEKFSTFDQKLAKGFIELFGMQSVLAYNMLHGVHSTSNISEIKEAIKTLE,soluble
10,AHHHHHHGSTIKAPTLNVPGLGVDPLTQRIKEKEKKWKYKIAVLSGKGGVGKSTVAVNLTAALAKMGYFVGILDADIHGPNVAKMFGIGNTDIYAEKFEDGHFEMIPPTVDFMGQVTPIKVMSMGMMVPEDQPIIWRGSLVTKAIKQLLGDVMWGELDFMIIDFPPGTGDEILTVVQSIQLDAAIVVTTPQEVALLDTGKAVNMMKKMEVPYIAVIENMSYLICPHCGNKIDIFGEGGGEKLAEKEGVDFLGKVPIDLKAREASDLGIPIVLYGDTPAAKAFMEIAEKLVNKLKEIKGDGREK,not soluble
11,AIAAELGLNEHHQNEVINYMRFARSKRGLRLKTVDSCFQDLKESRLVEDTFTIDEVSEVLNGLQAVVHSEVESELINTAYTNVLLLRQLFAQAEKWYLKLQTDISELENQELLEQVAEFEKAEITSSNKKPILDVTKPKLAPLNEGGTAELLNEEILRLQEENEKLKSRLKTIEIQATNALDEKSKLEKALQDLQLDQGNQKDFIKAQDLSNLENTVAALKSEFQKTLNDKTENQKSLEENLATAKHDLLRVREQLHMAEKELEKKFQQTAAYRNMKEILTKKNDQIKDLRKRLAQYEPED,soluble
12,AIAGSLGIVTNDPSPYSVHFHLTGFGRFHRVSQNPTEFLVKQFVSFCEERRGLHEAARVVTTTVATTSVKGAQQALDEVYGKLHRDKSVRNVIIHCGVDASANCFRLEERAYNEASFSCPDESGWQPKVVPIDDTKPVDSFLVTSINIRQAVEELEKKGFHVKSSEDAGRFLCNWIYYQSLTRAQCEFSVKVVFVHFPPIQDSQEIQSYCEFLLQLLNVITTHELSSIDE,soluble
13,AIAPAKERFFGFHPCKLVEQVEDCVRDLLEDALDGLETSLFRECALAFDALQENAVTSEHEHAKRLLLQQGLMRLRDALFTAFYDQMDRLQVYLLRNVFHIPPGLRIPNVNTSEDLVENWEQALGIDPSSVQIDANAEDEHAVDQELVALRQSLRVARQRLQRLCRERSVLEGAFHRLEGALQSRLASTLIPTEPEDPSGDCDALAKQVVTIARAVSELEAVVRSCRDQFLGDRSSAASGGAPPSGTVPAAAGGSDVGAQGALVRPPLELERIFDAHTKATRVDSLDAVDALRRALHRSC,soluble
14,AIAPRNNKTSLIQKIASQAYATFTNCSSSAIEDNNKVFLEHQADLVALLSDIRAADLKIAPPTKVSTSSPSVPPVTYMHICETDVFSMGVFLLKSGASIPLHDHPGMHGMLKVLYGKVSIRCYDKLDKAESDTERHFDPPLLAFQGDDVRRAALRSSGQFSELSGPCVLSPFKDNLHEIDAVDGAAAFLDILAPPYDPDDGRDCHYYRVLQTAGKKSEQSGDDEAWLLEIPQPDDFWCGGEPYPGPEVTI,soluble
15,AIARPSSLRQYLDSVPLPPCQEQQPKASAELDHKACYLCHSLLMLAGVVVSCQDITPDQWGELQLLCMQLDRHISTQIRESPQAMHRTMLKDLATQTYIRWQELLTHCQPQAQYFSPWKDI,soluble
